The text below walks through data of patent US20130064836A1 (Novartis, published 2013).

The target in test [1] is T1, human complement C5 protein (human, UniProt P01031 19-673; P01031 678-1676, Beta and alpha chains are joined by disulfide bonds. C5 was biotinylated in some assays.).
T1 construct: Mature C5 is a beta and an alpha chain joined by disulfide bonds after loss of the RPRR linker; also called human C5; hu C5
As to the kind of experiment: SET (MSD), purified Fab. Here is the method:
(§1) Streptavidin MSD plates were coated with 0.2 μg/ml biotinylated human C5 (30 μl/well) and blocked with 5% BSA in PBS. Subsequently the equilibrated samples were transferred to those plates (30 μl per well) and incubated for 20 min.

Test [2] deals with T2, cynomolgus C5 (Macaca fascicularis) (cynomolgus (Macaca fascicularis), Beta and alpha chains are joined by disulfide bonds; the protein is a serum glycoprotein.).
T2 construct: also called cyno C5; cynoC5
T2 beta: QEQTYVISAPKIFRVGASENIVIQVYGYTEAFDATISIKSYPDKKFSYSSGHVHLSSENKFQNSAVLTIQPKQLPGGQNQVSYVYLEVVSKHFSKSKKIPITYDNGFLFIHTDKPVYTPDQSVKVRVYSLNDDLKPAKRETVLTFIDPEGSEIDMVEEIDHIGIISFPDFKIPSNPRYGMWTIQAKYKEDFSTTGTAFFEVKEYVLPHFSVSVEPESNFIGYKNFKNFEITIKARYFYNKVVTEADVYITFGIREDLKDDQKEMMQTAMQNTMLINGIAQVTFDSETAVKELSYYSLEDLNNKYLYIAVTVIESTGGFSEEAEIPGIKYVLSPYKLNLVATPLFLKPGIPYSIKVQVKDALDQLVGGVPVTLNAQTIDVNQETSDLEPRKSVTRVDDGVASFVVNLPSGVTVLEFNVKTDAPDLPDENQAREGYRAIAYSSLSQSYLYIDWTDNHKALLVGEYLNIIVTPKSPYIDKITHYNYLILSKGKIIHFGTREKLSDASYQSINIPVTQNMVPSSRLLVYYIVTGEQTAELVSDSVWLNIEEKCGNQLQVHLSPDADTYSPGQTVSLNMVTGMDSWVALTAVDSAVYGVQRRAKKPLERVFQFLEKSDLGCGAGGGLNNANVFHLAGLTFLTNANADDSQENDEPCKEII
T2 alpha: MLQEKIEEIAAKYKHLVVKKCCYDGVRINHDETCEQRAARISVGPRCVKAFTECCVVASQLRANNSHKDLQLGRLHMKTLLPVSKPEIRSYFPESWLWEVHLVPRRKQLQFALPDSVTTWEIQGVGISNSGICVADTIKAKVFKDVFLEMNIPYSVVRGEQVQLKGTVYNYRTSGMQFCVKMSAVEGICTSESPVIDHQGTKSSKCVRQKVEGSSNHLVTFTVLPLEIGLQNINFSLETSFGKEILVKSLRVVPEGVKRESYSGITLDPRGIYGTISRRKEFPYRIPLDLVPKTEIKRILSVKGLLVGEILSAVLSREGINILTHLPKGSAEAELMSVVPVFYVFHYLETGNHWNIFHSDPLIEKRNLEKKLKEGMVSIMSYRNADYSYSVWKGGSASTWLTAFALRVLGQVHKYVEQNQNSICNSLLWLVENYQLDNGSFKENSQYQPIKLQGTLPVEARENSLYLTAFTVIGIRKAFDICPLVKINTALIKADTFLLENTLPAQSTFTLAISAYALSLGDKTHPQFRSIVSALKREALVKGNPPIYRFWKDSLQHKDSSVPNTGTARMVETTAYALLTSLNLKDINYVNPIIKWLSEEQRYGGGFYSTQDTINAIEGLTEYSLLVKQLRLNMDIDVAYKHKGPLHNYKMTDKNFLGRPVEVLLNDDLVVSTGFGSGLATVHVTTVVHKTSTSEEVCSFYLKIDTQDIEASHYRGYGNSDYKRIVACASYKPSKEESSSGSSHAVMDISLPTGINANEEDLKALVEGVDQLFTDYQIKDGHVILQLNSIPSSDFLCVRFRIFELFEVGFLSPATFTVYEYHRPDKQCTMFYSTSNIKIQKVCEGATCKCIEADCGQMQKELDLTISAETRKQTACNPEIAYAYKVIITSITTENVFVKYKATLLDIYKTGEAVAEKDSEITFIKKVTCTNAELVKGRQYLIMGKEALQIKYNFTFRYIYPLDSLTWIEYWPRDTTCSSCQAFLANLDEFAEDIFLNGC
As to the kind of experiment: SET (MSD), purified Fab. On the procedure: as §1

The target in test [3] is T1, human complement C5 protein. The test can be described thus: cell-based or functional assay.
For test [4] the target is unchanged. As to the kind of experiment: cell-based or functional assay. The source holds these as a separate data set.
Test [5] concerns the target T2, cynomolgus C5 (Macaca fascicularis). As to the kind of experiment: cell-based or functional assay.
Another test concerns the target T3, human complement C3 (human, UniProt P01024 23-667; P01024 672-1663).
T3 construct: Counter target in the ELISAs, coated directly or biotinylated; also called human C3
The test can be described thus: solution ELISA: Fab with biotinylated antigen on NeutrAvidin plate, His-tag detection [huC3 panel]. On the procedure:
(§2) Fabs were incubated with biotinylated antigen on a Neutravidin plate and detected via the histidin tag.
In general terms: An ELISA detects its analyte on a solid surface through an enzyme-linked reagent.

The target in test [6] is T1, human complement C5 protein. The test can be described thus: solution ELISA: Fab with biotinylated antigen on NeutrAvidin plate, His-tag detection [huC5 panel]. Here is the method:
as §2

Test [7] has as its target T2, cynomolgus C5 (Macaca fascicularis). As to the kind of experiment: solution ELISA: Fab with biotinylated antigen on NeutrAvidin plate, His-tag detection [cynoC5 panel]. On the procedure:
as §2

Test [8] shares this target. As to the kind of experiment: affinity chromatography.

T3 sequence (P01024 23-667 limits assumed, chain 1 of 2): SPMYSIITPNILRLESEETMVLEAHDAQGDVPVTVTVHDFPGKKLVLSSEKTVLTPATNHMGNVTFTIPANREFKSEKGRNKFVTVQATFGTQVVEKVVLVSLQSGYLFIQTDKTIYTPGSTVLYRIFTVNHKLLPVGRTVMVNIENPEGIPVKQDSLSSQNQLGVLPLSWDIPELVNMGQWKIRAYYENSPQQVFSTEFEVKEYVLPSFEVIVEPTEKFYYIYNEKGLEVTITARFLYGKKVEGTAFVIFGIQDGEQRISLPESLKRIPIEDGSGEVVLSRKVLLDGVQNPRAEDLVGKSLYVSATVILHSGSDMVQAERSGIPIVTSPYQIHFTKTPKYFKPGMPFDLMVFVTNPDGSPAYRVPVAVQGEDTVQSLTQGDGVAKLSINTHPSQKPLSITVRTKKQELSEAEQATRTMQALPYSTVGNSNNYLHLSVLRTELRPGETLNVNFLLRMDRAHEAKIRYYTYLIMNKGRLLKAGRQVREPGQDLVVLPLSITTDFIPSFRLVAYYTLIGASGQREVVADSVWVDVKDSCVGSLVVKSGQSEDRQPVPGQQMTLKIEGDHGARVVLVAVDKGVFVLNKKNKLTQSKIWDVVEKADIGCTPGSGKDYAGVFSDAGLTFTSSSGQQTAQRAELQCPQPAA
T3 sequence (P01024 672-1663 limits assumed, chain 2 of 2): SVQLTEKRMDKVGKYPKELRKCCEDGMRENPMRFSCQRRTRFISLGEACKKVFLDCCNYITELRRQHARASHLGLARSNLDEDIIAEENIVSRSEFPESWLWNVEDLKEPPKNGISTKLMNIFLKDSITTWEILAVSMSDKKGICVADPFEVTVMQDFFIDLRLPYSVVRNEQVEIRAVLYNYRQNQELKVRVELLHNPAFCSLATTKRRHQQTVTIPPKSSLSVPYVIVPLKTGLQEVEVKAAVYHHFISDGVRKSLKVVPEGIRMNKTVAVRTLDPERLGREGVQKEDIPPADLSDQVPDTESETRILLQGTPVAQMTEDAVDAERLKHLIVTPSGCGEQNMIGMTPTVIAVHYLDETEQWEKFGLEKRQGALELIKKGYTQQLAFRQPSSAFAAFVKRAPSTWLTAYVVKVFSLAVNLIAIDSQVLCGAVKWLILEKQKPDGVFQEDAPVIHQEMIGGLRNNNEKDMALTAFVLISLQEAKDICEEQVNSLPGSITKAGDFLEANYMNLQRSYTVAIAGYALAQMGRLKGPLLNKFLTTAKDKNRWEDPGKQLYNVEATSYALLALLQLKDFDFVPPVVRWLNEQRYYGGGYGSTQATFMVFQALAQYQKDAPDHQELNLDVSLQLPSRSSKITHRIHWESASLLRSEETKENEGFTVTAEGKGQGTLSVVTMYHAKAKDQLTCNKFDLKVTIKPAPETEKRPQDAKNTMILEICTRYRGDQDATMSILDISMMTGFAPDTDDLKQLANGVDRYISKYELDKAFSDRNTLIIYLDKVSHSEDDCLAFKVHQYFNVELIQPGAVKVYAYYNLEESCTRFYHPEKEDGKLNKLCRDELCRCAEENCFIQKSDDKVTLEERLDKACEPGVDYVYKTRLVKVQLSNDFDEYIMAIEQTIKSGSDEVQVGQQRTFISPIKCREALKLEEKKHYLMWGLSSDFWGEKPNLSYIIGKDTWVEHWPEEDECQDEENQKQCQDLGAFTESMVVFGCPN

B1: MOR07871 (Fab, V domains shown)
VH: QVQLVQSGAEVKKPGESLKISCKGSGYSFTSYYIGWVRQMPGKGLEWMGIIDPSDSHTTYSPSFQGQVTISADKSISTAYLQWSSLKASDTAMYYCARYMMRGFDHWGQGTLVTVSS
VL: DIELTQPPSVSVAPGQTARISCSGDSLGDYYAYWYQQKPGQAPVLVIYKDNNRPSGIPERFSGSNSGNTATLTISGTQAEDEADYYCQTWDTGESGVFGGGTKLTVLG
notes: light CS or A
B1: the results for the Kd in [1] and in test [2] were 3 pM and 4 pM, respectively. For the same molecule, in test [3], the “IC50; hemolysis AP, 100 pM human C5 [panel f]” value is 54.5 pM. In addition, the “IC50; hemolysis AP, 100 pM human C5 [panel j]” value in [4] was found to be 36.6 pM. Moreover, the “IC50; hemolysis AP, 100 pM cyno C5 in 20% human C5-depleted serum [panel a]” value in test [5] came to 0.111 nM. In [5], the “IC50; hemolysis AP, 100 pM cyno C5 in 20% human C5-depleted serum [panel f]” value amounted to 0.137 nM. In addition, the binding result with human complement C3 is “no binding (tested: 100 nM)”. Moreover, the concentration giving a half-maximal response (EC50) (usually the concentration giving half of the maximal effect) in [6] came out at 849 pM; in test [7], 617 pM.

B2: MOR07086 hu IgG1 (antibody, V domains shown)
VH: QVQLVQSGAEVKKPGSSVKVSCKASGGTFSSYAISWVRQAPGQGLEWMGGIGPFFGTANYAQKFQGRVTITADESTSTAYMELSSLRSEDTAVYYCARDTPYFDYWGQGTLVTVSS
VL: DIELTQPPSVSVAPGQTARISCSGDSIPNYYVYWYQQKPGQAPVLVIYDDSNRPSGIPERFSGSNSGNTATLTISGTQAEDEADYYCQSFDSSLNAEVFGGGTKLTVL
On to B2, for which the binding result in test [8] was “binds”.
